These results are taken from patent US20100099610A1 (published 2010).

In one test the target is hGHQ40N (human, UniProt P01241 27-217). The experiment in a line: cell-based or functional assay.
The target of another test is hGHQ141N (human, UniProt P01241 27-217). Put plainly: cell-based or functional assay.
hGHQ141N, sequence (P01241 27-217 Q167N): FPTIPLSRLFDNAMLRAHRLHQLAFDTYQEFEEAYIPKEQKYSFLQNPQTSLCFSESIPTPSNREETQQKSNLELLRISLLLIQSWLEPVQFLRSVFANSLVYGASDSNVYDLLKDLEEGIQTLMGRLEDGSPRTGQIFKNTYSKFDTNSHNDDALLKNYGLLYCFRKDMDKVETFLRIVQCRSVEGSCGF

hGHQ40N, sequence (P01241 27-217 Q66N): as the sequence (P01241 27-217 Q167N) above, with Q40N, N141Q counted along it

B1: S. ladakanum GlyPro-TGase mutant S250M (enzyme)
chain: GPDSDERVTPPAEPLDRMPDPYRPSYGRAETIVNNYIRKWQQVYSHRDGRKQQMTEEQREWLSYGCVGVTWVNSGQYPTNRLAFAFFDEDKYKNELKNGRPRSGETRAEFEGRVAKDSFDEAKGFQRARDVASVMNKALENAHDEGAYLDNLKKELANGNDALRNEDARSPFYSALRNTPSFKDRNGGNHDPSKMKAVIYSKHFWSGQDRSGSSDKRKYGDPEAFRPDRGTGLVDMSRDRNIPRSPTSPGEMFVNFDYGWFGAQTEADADKTVWTHGNHYHAPNGSLGAMHVYESKFRNWSDGYSDFDRGAYVVTFVPKSWNTAPDKVKQGWP
For the molecule B1, the “RSA Q141” value with hGHQ40N was 3.25 relative to wild type TGase. For the same molecule, the “RSA Q40” value in the test with hGHQ141N was 2.22 relative to wild type TGase.

B2: S. ladakanum GlyPro-TGase mutant S250P (enzyme)
chain: GPDSDERVTPPAEPLDRMPDPYRPSYGRAETIVNNYIRKWQQVYSHRDGRKQQMTEEQREWLSYGCVGVTWVNSGQYPTNRLAFAFFDEDKYKNELKNGRPRSGETRAEFEGRVAKDSFDEAKGFQRARDVASVMNKALENAHDEGAYLDNLKKELANGNDALRNEDARSPFYSALRNTPSFKDRNGGNHDPSKMKAVIYSKHFWSGQDRSGSSDKRKYGDPEAFRPDRGTGLVDMSRDRNIPRSPTSPGEPFVNFDYGWFGAQTEADADKTVWTHGNHYHAPNGSLGAMHVYESKFRNWSDGYSDFDRGAYVVTFVPKSWNTAPDKVKQGWP
For the molecule B2, in the test with hGHQ40N, the “RSA Q141” value was 3.99 relative to wild type TGase. Also, the “RSA Q40” value with hGHQ141N was 1.86 relative to wild type TGase.

B3: S. ladakanum GlyPro-TGase mutant S250R (enzyme)
chain: GPDSDERVTPPAEPLDRMPDPYRPSYGRAETIVNNYIRKWQQVYSHRDGRKQQMTEEQREWLSYGCVGVTWVNSGQYPTNRLAFAFFDEDKYKNELKNGRPRSGETRAEFEGRVAKDSFDEAKGFQRARDVASVMNKALENAHDEGAYLDNLKKELANGNDALRNEDARSPFYSALRNTPSFKDRNGGNHDPSKMKAVIYSKHFWSGQDRSGSSDKRKYGDPEAFRPDRGTGLVDMSRDRNIPRSPTSPGERFVNFDYGWFGAQTEADADKTVWTHGNHYHAPNGSLGAMHVYESKFRNWSDGYSDFDRGAYVVTFVPKSWNTAPDKVKQGWP
For B3, in the test with hGHQ40N, the “RSA Q141” value was 0.83 relative to wild type TGase. In addition, in the test with hGHQ141N, the “RSA Q40” value is 0.59 relative to wild type TGase.

B4: S. ladakanum GlyPro-TGase mutant S250Y (enzyme)
chain: GPDSDERVTPPAEPLDRMPDPYRPSYGRAETIVNNYIRKWQQVYSHRDGRKQQMTEEQREWLSYGCVGVTWVNSGQYPTNRLAFAFFDEDKYKNELKNGRPRSGETRAEFEGRVAKDSFDEAKGFQRARDVASVMNKALENAHDEGAYLDNLKKELANGNDALRNEDARSPFYSALRNTPSFKDRNGGNHDPSKMKAVIYSKHFWSGQDRSGSSDKRKYGDPEAFRPDRGTGLVDMSRDRNIPRSPTSPGEYFVNFDYGWFGAQTEADADKTVWTHGNHYHAPNGSLGAMHVYESKFRNWSDGYSDFDRGAYVVTFVPKSWNTAPDKVKQGWP
For B4, the “RSA Q141” value in the test with hGHQ40N is 1.71 relative to wild type TGase. Also, the “RSA Q40” value with hGHQ141N was 0.95 relative to wild type TGase.

B5: S. ladakanum GlyPro-TGase mutant Y62L (enzyme)
chain: GPDSDERVTPPAEPLDRMPDPYRPSYGRAETIVNNYIRKWQQVYSHRDGRKQQMTEEQREWLSLGCVGVTWVNSGQYPTNRLAFAFFDEDKYKNELKNGRPRSGETRAEFEGRVAKDSFDEAKGFQRARDVASVMNKALENAHDEGAYLDNLKKELANGNDALRNEDARSPFYSALRNTPSFKDRNGGNHDPSKMKAVIYSKHFWSGQDRSGSSDKRKYGDPEAFRPDRGTGLVDMSRDRNIPRSPTSPGESFVNFDYGWFGAQTEADADKTVWTHGNHYHAPNGSLGAMHVYESKFRNWSDGYSDFDRGAYVVTFVPKSWNTAPDKVKQGWP
Turning to B5, the “RSA Q141” value in the test with hGHQ40N is 0.2 relative to wild type TGase. Moreover, in the test with hGHQ141N, the “RSA Q40” value was 0.07 relative to wild type TGase.

B6: S. ladakanum GlyPro-TGase mutant S250Q (enzyme)
chain: GPDSDERVTPPAEPLDRMPDPYRPSYGRAETIVNNYIRKWQQVYSHRDGRKQQMTEEQREWLSYGCVGVTWVNSGQYPTNRLAFAFFDEDKYKNELKNGRPRSGETRAEFEGRVAKDSFDEAKGFQRARDVASVMNKALENAHDEGAYLDNLKKELANGNDALRNEDARSPFYSALRNTPSFKDRNGGNHDPSKMKAVIYSKHFWSGQDRSGSSDKRKYGDPEAFRPDRGTGLVDMSRDRNIPRSPTSPGEQFVNFDYGWFGAQTEADADKTVWTHGNHYHAPNGSLGAMHVYESKFRNWSDGYSDFDRGAYVVTFVPKSWNTAPDKVKQGWP
Take B6: the “RSA Q141” value with hGHQ40N was 1.92 relative to wild type TGase. In addition, the “RSA Q40” value in the test with hGHQ141N was 1.62 relative to wild type TGase.

B7: S. ladakanum GlyPro-TGase mutant Y62T (enzyme)
chain: GPDSDERVTPPAEPLDRMPDPYRPSYGRAETIVNNYIRKWQQVYSHRDGRKQQMTEEQREWLSTGCVGVTWVNSGQYPTNRLAFAFFDEDKYKNELKNGRPRSGETRAEFEGRVAKDSFDEAKGFQRARDVASVMNKALENAHDEGAYLDNLKKELANGNDALRNEDARSPFYSALRNTPSFKDRNGGNHDPSKMKAVIYSKHFWSGQDRSGSSDKRKYGDPEAFRPDRGTGLVDMSRDRNIPRSPTSPGESFVNFDYGWFGAQTEADADKTVWTHGNHYHAPNGSLGAMHVYESKFRNWSDGYSDFDRGAYVVTFVPKSWNTAPDKVKQGWP
With B7, the “RSA Q141” value with hGHQ40N was 0.19 relative to wild type TGase. The “RSA Q40” value in the test with hGHQ141N is 0.1 relative to wild type TGase.

B8: S. ladakanum GlyPro-TGase mutant Y75C (enzyme)
chain: GPDSDERVTPPAEPLDRMPDPYRPSYGRAETIVNNYIRKWQQVYSHRDGRKQQMTEEQREWLSYGCVGVTWVNSGQCPTNRLAFAFFDEDKYKNELKNGRPRSGETRAEFEGRVAKDSFDEAKGFQRARDVASVMNKALENAHDEGAYLDNLKKELANGNDALRNEDARSPFYSALRNTPSFKDRNGGNHDPSKMKAVIYSKHFWSGQDRSGSSDKRKYGDPEAFRPDRGTGLVDMSRDRNIPRSPTSPGESFVNFDYGWFGAQTEADADKTVWTHGNHYHAPNGSLGAMHVYESKFRNWSDGYSDFDRGAYVVTFVPKSWNTAPDKVKQGWP
On to B8, for which, in the test with hGHQ40N, the “RSA Q141” value is 0.18 relative to wild type TGase. In addition, in the test with hGHQ141N, the “RSA Q40” value is 0.06 relative to wild type TGase.

B9: S. ladakanum GlyPro-TGase mutant Y62M (enzyme)
chain: GPDSDERVTPPAEPLDRMPDPYRPSYGRAETIVNNYIRKWQQVYSHRDGRKQQMTEEQREWLSMGCVGVTWVNSGQYPTNRLAFAFFDEDKYKNELKNGRPRSGETRAEFEGRVAKDSFDEAKGFQRARDVASVMNKALENAHDEGAYLDNLKKELANGNDALRNEDARSPFYSALRNTPSFKDRNGGNHDPSKMKAVIYSKHFWSGQDRSGSSDKRKYGDPEAFRPDRGTGLVDMSRDRNIPRSPTSPGESFVNFDYGWFGAQTEADADKTVWTHGNHYHAPNGSLGAMHVYESKFRNWSDGYSDFDRGAYVVTFVPKSWNTAPDKVKQGWP
Take B9: the “RSA Q141” value with hGHQ40N was 0.28 relative to wild type TGase. The “RSA Q40” value with hGHQ141N is 0.1 relative to wild type TGase.

B10: S. ladakanum GlyPro-TGase mutant S250W (enzyme)
chain: GPDSDERVTPPAEPLDRMPDPYRPSYGRAETIVNNYIRKWQQVYSHRDGRKQQMTEEQREWLSYGCVGVTWVNSGQYPTNRLAFAFFDEDKYKNELKNGRPRSGETRAEFEGRVAKDSFDEAKGFQRARDVASVMNKALENAHDEGAYLDNLKKELANGNDALRNEDARSPFYSALRNTPSFKDRNGGNHDPSKMKAVIYSKHFWSGQDRSGSSDKRKYGDPEAFRPDRGTGLVDMSRDRNIPRSPTSPGEWFVNFDYGWFGAQTEADADKTVWTHGNHYHAPNGSLGAMHVYESKFRNWSDGYSDFDRGAYVVTFVPKSWNTAPDKVKQGWP
For the molecule B10, the “RSA Q141” value with hGHQ40N is 2.43 relative to wild type TGase. In addition, in the test with hGHQ141N, the “RSA Q40” value was 1.3 relative to wild type TGase.

B11: S. ladakanum GlyPro-TGase mutant S250A (enzyme)
chain: GPDSDERVTPPAEPLDRMPDPYRPSYGRAETIVNNYIRKWQQVYSHRDGRKQQMTEEQREWLSYGCVGVTWVNSGQYPTNRLAFAFFDEDKYKNELKNGRPRSGETRAEFEGRVAKDSFDEAKGFQRARDVASVMNKALENAHDEGAYLDNLKKELANGNDALRNEDARSPFYSALRNTPSFKDRNGGNHDPSKMKAVIYSKHFWSGQDRSGSSDKRKYGDPEAFRPDRGTGLVDMSRDRNIPRSPTSPGEAFVNFDYGWFGAQTEADADKTVWTHGNHYHAPNGSLGAMHVYESKFRNWSDGYSDFDRGAYVVTFVPKSWNTAPDKVKQGWP
As for B11, in the test with hGHQ40N, the “RSA Q141” value was 4.23 relative to wild type TGase. Also, the “RSA Q40” value with hGHQ141N is 2.57 relative to wild type TGase.

B12: S. ladakanum GlyPro-TGase mutant Y75L (enzyme)
chain: GPDSDERVTPPAEPLDRMPDPYRPSYGRAETIVNNYIRKWQQVYSHRDGRKQQMTEEQREWLSYGCVGVTWVNSGQLPTNRLAFAFFDEDKYKNELKNGRPRSGETRAEFEGRVAKDSFDEAKGFQRARDVASVMNKALENAHDEGAYLDNLKKELANGNDALRNEDARSPFYSALRNTPSFKDRNGGNHDPSKMKAVIYSKHFWSGQDRSGSSDKRKYGDPEAFRPDRGTGLVDMSRDRNIPRSPTSPGESFVNFDYGWFGAQTEADADKTVWTHGNHYHAPNGSLGAMHVYESKFRNWSDGYSDFDRGAYVVTFVPKSWNTAPDKVKQGWP
For the molecule B12, in the test with hGHQ40N, the “RSA Q141” value was 0.18 relative to wild type TGase. In addition, in the test with hGHQ141N, the “RSA Q40” value was 0.06 relative to wild type TGase.

B13: S. ladakanum GlyPro-TGase mutant S250V (enzyme)
chain: GPDSDERVTPPAEPLDRMPDPYRPSYGRAETIVNNYIRKWQQVYSHRDGRKQQMTEEQREWLSYGCVGVTWVNSGQYPTNRLAFAFFDEDKYKNELKNGRPRSGETRAEFEGRVAKDSFDEAKGFQRARDVASVMNKALENAHDEGAYLDNLKKELANGNDALRNEDARSPFYSALRNTPSFKDRNGGNHDPSKMKAVIYSKHFWSGQDRSGSSDKRKYGDPEAFRPDRGTGLVDMSRDRNIPRSPTSPGEVFVNFDYGWFGAQTEADADKTVWTHGNHYHAPNGSLGAMHVYESKFRNWSDGYSDFDRGAYVVTFVPKSWNTAPDKVKQGWP
For the molecule B13, the “RSA Q141” value with hGHQ40N was 0.96 relative to wild type TGase. Also, the “RSA Q40” value with hGHQ141N is 0.51 relative to wild type TGase.

B14: S. ladakanum GlyPro-TGase mutant Y75M (enzyme)
chain: GPDSDERVTPPAEPLDRMPDPYRPSYGRAETIVNNYIRKWQQVYSHRDGRKQQMTEEQREWLSYGCVGVTWVNSGQMPTNRLAFAFFDEDKYKNELKNGRPRSGETRAEFEGRVAKDSFDEAKGFQRARDVASVMNKALENAHDEGAYLDNLKKELANGNDALRNEDARSPFYSALRNTPSFKDRNGGNHDPSKMKAVIYSKHFWSGQDRSGSSDKRKYGDPEAFRPDRGTGLVDMSRDRNIPRSPTSPGESFVNFDYGWFGAQTEADADKTVWTHGNHYHAPNGSLGAMHVYESKFRNWSDGYSDFDRGAYVVTFVPKSWNTAPDKVKQGWP
With B14, the “RSA Q141” value with hGHQ40N is 0.18 relative to wild type TGase. In the test with hGHQ141N, the “RSA Q40” value is 0.1 relative to wild type TGase.

B15: S. ladakanum GlyPro-TGase mutant Y62N (enzyme)
chain: GPDSDERVTPPAEPLDRMPDPYRPSYGRAETIVNNYIRKWQQVYSHRDGRKQQMTEEQREWLSNGCVGVTWVNSGQYPTNRLAFAFFDEDKYKNELKNGRPRSGETRAEFEGRVAKDSFDEAKGFQRARDVASVMNKALENAHDEGAYLDNLKKELANGNDALRNEDARSPFYSALRNTPSFKDRNGGNHDPSKMKAVIYSKHFWSGQDRSGSSDKRKYGDPEAFRPDRGTGLVDMSRDRNIPRSPTSPGESFVNFDYGWFGAQTEADADKTVWTHGNHYHAPNGSLGAMHVYESKFRNWSDGYSDFDRGAYVVTFVPKSWNTAPDKVKQGWP
As for B15, the “RSA Q141” value with hGHQ40N is 0.18 relative to wild type TGase. For the same molecule, the “RSA Q40” value in the test with hGHQ141N is 0.05 relative to wild type TGase.
